For assay [1], the target named is T1, hIgG1-Fc (human, UniProt P01857-1 100-330 = IgG part, limits assumed).
T1 construct: domain: Fc; treated as the same molecule; also called IgG1 Fc region; hIgG-Fc
The assay can be described thus: SPR (Biacore) on hIgG1-Fc, one concentration, 1 µM. The text has this:
Analysis via label-free interaction assays using SPR spectroscopy (BIAcore). Change in refractive index measured in real time and plotted as response or resonance unit [RU] versus time [sec]. […] Solid line = Ig binding protein SEQ ID NO: 41; dotted line = Ig binding protein SEQ ID NO: 42.
A CM5 sensor chip (GE Healthcare) was equilibrated with SPR running buffer. Surface-exposed carboxylic groups were activated by passing a mixture of EDC and NHS to yield reactive ester groups. 700-1500 RU on-ligand were immobilized on a flow cell, off-ligand was immobilized on another flow cell. Injection of ethanolamine after ligand immobilization removes non-covalently bound Ig binding protein. Upon ligand binding, protein analyte was accumulated on the surface increasing the refractive index. This change in the refractive index was measured in real time and plotted as response or resonance units (RU) versus time. The analytes were applied to the chip in serial dilutions with a suitable flow rate (µl/min). After each run, the chip surface was regenerated with regeneration buffer and equilibrated with running buffer. The control samples were applied to the matrix. Regeneration and re-equilibration were performed as previously mentioned. […] Evaluated dissociation constants (KD) were standardized against off-target and KD values of different artificial Ig binding proteins for hIgG1-Fc (FIG. 2 and TABLE 6). […]

Assay [2] has as its target T1, hIgG1-Fc. Briefly: SPR, Biacore 3000, 25 C, Langmuir 1:1 model. The text has this: (§1) A CM5 sensor chip (GE Healthcare) was equilibrated with SPR running buffer. Surface-exposed carboxylic groups were activated by passing a mixture of EDC and NHS to yield reactive ester groups. 700-1500 RU on-ligand were immobilized on a flow cell, off-ligand was immobilized on another flow cell. Injection of ethanolamine after ligand immobilization removes non-covalently bound Ig binding protein. Upon ligand binding, protein analyte was accumulated on the surface increasing the refractive index. This change in the refractive index was measured in real time and plotted as response or resonance units (RU) versus time. The analytes were applied to the chip in serial dilutions with a suitable flow rate (µl/min). After each run, the chip surface was regenerated with regeneration buffer and equilibrated with running buffer. The control samples were applied to the matrix. Regeneration and re-equilibration were performed as previously mentioned. Binding studies were carried out by the use of the Biacore® 3000 (GE Healthcare) at 25° C.; data evaluation was operated via the BIAevaluation 3.0 software, provided by the manufacturer, by the use of the Langmuir 1:1 model (RI=0). Evaluated dissociation constants (KD) were standardized against off-target and KD values of different artificial Ig binding proteins for hIgG1-Fc (FIG. 2 and TABLE 6). For example, the KD of SEQ ID NO: 41 (CID208846) and SEQ ID NO: 42 (CID208847) is in single-digit µM range vs. hIgG1-Fc.

Assay [3] deals with T1, hIgG1-Fc. Briefly: SPR, Biacore 3000.
Excerpt: as §1

B1: SEQ ID NO: 41 (CID208846) (designed binder)
chain: ADNKFSQSANLLAEAKKLNDAQGGITEEQRNGFIQSLKDDIGASPMNKEQQNAFYEILHLPK
B1: in assay [1], the binding result is “binds”.

B2: CID213246 (designed binder)
chain: ADNKFSQSANLLAEAKKLNDAQGGLTEEQRNGFIQSLKDDVRRVGSNKEQQNAFYEILHLPK
Consider B2, for which the Kd in assay [2] came to 248 nM.

B3: CID213215 (designed binder)
chain: ADNKFSQSANLLAEAKKLNDAQGGLTEEQRNGFIQSLKDDVRKLGPNKEQQNAFYEILHLPK
With B3, in assay [2], the Kd amounted to 190 nM.

B4: CID-210234 (designed binder)
chain: ADNKFSQSANLLAEAKKLNDAQGGLTEEQRNGFIQSLKDDASEKGANKEQQNAFYEILHLPK
notes: not tied in the text
Consider B4, for which the binding result in assay [3] is “binds”.

B5: CID213191 (designed binder)
chain: ADNKFSQSANLLAEAKKLNDAQGGLTEEQRNGFIQSLKDDGTEGVHNKEQQNAFYEILHLPK
In assay [2], B5 returned a Kd of 132 nM. This lies in the sub-micromolar range.

B6: CID213224 (designed binder)
chain: ADNKFSQSANLLAEAKKLNDAQNGLTEEQRNGFIQSLKDDVRTNGANKEQQNAFYEILHLPK
Regarding B6, the Kd in assay [2] came to 220 nM.

B7: CID-213213 (designed binder)
chain: ADNKFSQSANLLAEAKKLNDAQGGLTEEQRNGFIQSLKDDHTPTRGNKEQQNAFYEILHLPK
notes: not tied in the text
As to B7, the binding result in assay [3] is on record as “binds”.

B8: CID213278 (designed binder)
chain: ADNKFSQSANLLAEAKKLNDAQGGLTEEQRNGFIQSLKDDMNVGKHNKEQQNAFYEILHLPK
B8: the Kd in assay [2] amounted to 199 nM.

B9: CID-210240 (designed binder)
chain: ADNKFSQSANLLAEAKKLNDAQGGLTEEQRNGFIQSLKDDPVLRGKPNKEQQNAFYEILHLPK
notes: not tied in the text
Consider B9, for which, in assay [3], the binding result is “binds”.

B10: CID210279 (designed binder)
chain: ADNKFSQSANLLAEAKKLNDAQGGLTEEQRNGFIQSLKDDTHPEDRQHNKEQQNAFYEILHLPK
B10 had a Kd in assay [2] of 103 nM. In other words, the sub-micromolar range.

B11: CID-213276 (designed binder)
chain: ADNKFSQSANLLAEAKKLNDAQGGITEEQRNGFIQSLKDDAKANPEANKEQQNAFYEILHLPK
notes: not tied in the text
In the case of B11, the binding result in assay [3] is reported as “binds”.

B12: SEQ ID NO: 42 (CID208847) (designed binder)
chain: ADNKFSQSANLLAEAKKLNDAQGGLTEEQRNGFIQSLKDDVPAGVANNKEQQNAFYEILHLPK
With B12, the binding result in assay [1] is reported as “binds”.

B13: CID210259 (designed binder)
chain: ADNKFSQSANLLAEAKKLNDAQGGITEEQRNGFIQSLKDDAKRNPMTNKEQQNAFYEILHLPK
With B13, in assay [2], the affinity, expressed as Kd, was 507 nM.

B14: CID213333 (designed binder)
chain: ADNKFSQSANLLAEAKKLNDAQGGITEEQRNGFIQSLKDDAKTNPGNNKEQQNAFYEILHLPK
Turning to B14, the Kd in assay [2] came to 43 nM.

B15: CID213197 (designed binder)
chain: ADNKFSQSANLLAEAKKLNDAQGGLTEEQRNGFIQSLKDDTAANPTANKEQQNAFYEILHLPK
In assay [2], B15 showed a Kd of 84 nM.

B16: CID213235 (designed binder)
chain: ADNKFSQSANLLAEAKKLSDAQRGLTEEQRNGFIQSLKDDTKRHPKMNKEQQNAFYEILHLPK
In the case of B16, the Kd in assay [2] turned out to be 257 nM.

Values taken from patent publication US20230212218A1 (NAVIGO PROTEINS, published 2023).
